One molecule from publication PMC3954559 can be followed below.

In general, Kd refers to the constant that tells how readily two partners part at equilibrium.

Test [1] has as its target commercial immunoglobulin containing Fc. In words: SPR. For orientation: SPR reads the build-up and loss of mass on a sensor chip optically.
The target of test [2] is partially deglycosylated Fc (mouse IgG3 Fc domain treated with a mixture of endoglycosidases) (mouse). In words: SPR.

B1: mouse Fc receptor (FcR gamma I) (receptor)
chain: EVVNATKAVITLQPPWVSIFQKENVTLWCEGPHLPGDSSTQWFINGTAVQISTPSYSIPEASFQDSGEYRCQIGSSMPSDPVQLQIHNDWLLLQASRRVLTEGEPLALRCHGWKNKLVYNVVFYRNGKSFQFSSDSEVAILKTNLSHSGIYHCSGTGRHRYTSAGVSITVKELFTTPVLRASVSSPFPEGSLVTLNCETNLLLQRPGLQLHFSFYVGSKILEYRNTSSEYHIARAEREDAGFYWCEVATEDSSVLKRSPELELQVLGPQSSAPVWFHILFYLSVGIMFSLNTVLYVKIHRLQREKKYNLEVPLVSEQGKKANSFQQVRSDGVYEEVTATASQTTPKEAPDGPRSSVGDCGPEQPEPLPPSDSTGAQTSQS
As to B1, the results for the Kd in test [1] and in test [2] were 384 nM and 1330 nM, respectively.
